Measured values: the RNAGym collection of RNA variant scans (doi:10.7554/elife.80360)

B1: CPEB3 Ribozyme (parent)
chain: GGGGGCCACAGCAGAAGCGUUCACGUCGCGGCCCCUGUCAGAUUCUGGUGAAUCUGCGAAUUCUGCUGU

Variants of: B1
Test: self-cleavage, relative activity (ratio to wild type); higher = more cleavage; co-transcriptional

| Variant | self-cleavage |
| --- | --- |
| A52U G58U | 0.992 |
| A52U G65A | 0.783 |
| A52U G68C | 0.98 |
| A52U G68U | 0.992 |
| A52U U53A | 0.981 |
| A52U U53C | 0.879 |
| A52U U53G | 0.871 |
| A52U U55C | 0.63 |
| A52U U61A | 0.935 |
| A52U U61C | 0.68 |
| A52U U62A | 0.829 |
| A52U U62G | 0.82 |
| A52U U64C | 0.741 |
| A52U U64G | 0.666 |
| A52U U67C | 0.915 |
| A52U U67G | 0.987 |
| A52U U69C | 1.05 |
| A52U U69G | 1.04 |
| U53A | 0.973 |
| U53A A59C | 0.571 |
| U53A A59G | 0.98 |
| U53A A59U | 0.646 |
| U53A C54G | 0.586 |
| U53A C57G | 0.345 |

| Variant | self-cleavage |
| --- | --- |
| U53A C57U | 0.376 |
| U53A C63G | 0.709 |
| U53A C63U | 0.909 |
| U53A C66G | 0.624 |
| U53A C66U | 0.911 |
| U53A G56U | 0.583 |
| U53A G58A | 0.919 |
| U53A G58C | 0.917 |
| U53A G58U | 0.944 |
| U53A G65A | 0.739 |
| U53A G65C | 0.552 |
| U53A G65U | 0.587 |
| U53A G68A | 1.03 |
| U53A G68C | 1.03 |
| U53A G68U | 0.978 |
| U53A U55A | 0.354 |
| U53A U61A | 0.694 |
| U53A U61C | 0.583 |
| U53A U62A | 0.821 |
| U53A U62C | 0.634 |
| U53A U62G | 0.74 |
| U53A U64A | 0.822 |
| U53A U64C | 0.693 |
| U53A U64G | 0.626 |

| Variant | self-cleavage |
| --- | --- |
| U53A U67A | 0.834 |
| U53A U67G | 0.938 |
| U53A U69A | 1.01 |
| U53A U69G | 1.05 |
| U53C | 0.947 |
| U53C A59C | 0.525 |
| U53C A59G | 0.944 |
| U53C A59U | 0.618 |
| U53C A60C | 0.31 |
| U53C A60G | 0.711 |
| U53C A60U | 0.397 |
| U53C C54A | 0.506 |
| U53C C54G | 0.424 |
| U53C C57A | 0.346 |
| U53C C57G | 0.398 |
| U53C C57U | 0.43 |
| U53C C63A | 0.402 |
| U53C C63G | 0.451 |
| U53C C66G | 0.477 |
| U53C G56A | 0.539 |
| U53C G56C | 0.39 |
| U53C G58A | 0.85 |
| U53C G58C | 0.94 |
| U53C G65A | 0.472 |

| Variant | self-cleavage |
| --- | --- |
| U53C G65C | 0.407 |
| U53C G68A | 0.977 |
| U53C G68C | 1.02 |
| U53C G68U | 0.986 |
| U53C U55A | 0.364 |
| U53C U55C | 0.409 |
| U53C U55G | 0.303 |
| U53C U61G | 0.58 |
| U53C U62A | 0.549 |
| U53C U62G | 0.384 |
| U53C U64A | 0.525 |
| U53C U64C | 0.536 |
| U53C U64G | 0.535 |
| U53C U69C | 1.05 |
| U53C U69G | 0.993 |
| U53G | 0.927 |
| U53G A59C | 0.422 |
| U53G A59G | 0.894 |
| U53G A60C | 0.308 |
| U53G A60G | 0.793 |
| U53G A60U | 0.301 |
| U53G C54G | 0.673 |
| U53G C54U | 0.815 |
| U53G C57A | 0.327 |

| Variant | self-cleavage |
| --- | --- |
| U53G C57U | 0.311 |
| U53G C66A | 0.629 |
| U53G G56A | 0.553 |
| U53G G56C | 0.331 |
| U53G G56U | 0.401 |
| U53G G58C | 0.847 |
| U53G G58U | 0.939 |
| U53G G65A | 0.707 |
| U53G G65C | 0.704 |
| U53G G65U | 0.606 |
| U53G G68A | 0.909 |
| U53G U55A | 0.417 |
| U53G U55C | 0.468 |
| U53G U61A | 0.706 |
| U53G U61C | 0.473 |
| U53G U61G | 0.681 |
| U53G U62A | 0.688 |
| U53G U62C | 0.619 |
| U53G U64C | 0.764 |
| U53G U64G | 0.6 |
| U53G U69C | 1.04 |
| U53G U69G | 1.02 |
| C54A | 0.944 |
| C54A A60G | 0.584 |

| Variant | self-cleavage |
| --- | --- |
| C54A A60U | 0.308 |
| C54A C57A | 0.378 |
| C54A C57G | 0.338 |
| C54A C57U | 0.377 |
| C54A C63A | 0.538 |
| C54A C63G | 0.445 |
| C54A C63U | 0.796 |
| C54A C66A | 0.45 |
| C54A C66U | 0.911 |
| C54A G56A | 0.695 |
| C54A G56U | 0.471 |
| C54A G58C | 0.857 |
| C54A G58U | 0.968 |
| C54A G65A | 0.629 |
| C54A G65U | 0.519 |
| C54A G68A | 0.955 |
| C54A U55A | 0.743 |
| C54A U55C | 0.656 |
| C54A U55G | 0.796 |
| C54A U61A | 0.512 |
| C54A U61C | 0.44 |
| C54A U61G | 0.415 |
| C54A U62C | 0.538 |
| C54A U62G | 0.58 |

| Variant | self-cleavage |
| --- | --- |
| C54A U64A | 0.543 |
| C54A U64C | 0.483 |
| C54A U67A | 0.954 |
| C54A U69A | 1.01 |
| C54A U69C | 1.04 |
| C54G | 0.951 |
| C54G A59C | 0.478 |
| C54G A59G | 0.957 |
| C54G A60C | 0.282 |
| C54G A60G | 0.541 |
| C54G A60U | 0.393 |
| C54G C57A | 0.348 |
| C54G C57G | 0.274 |
| C54G C63G | 0.514 |
| C54G C63U | 0.797 |
| C54G C66U | 0.821 |
| C54G G56A | 0.658 |
| C54G G56C | 0.43 |
| C54G G58C | 0.829 |
| C54G G58U | 0.93 |
| C54G G65A | 0.663 |
| C54G G65U | 0.587 |
| C54G G68A | 0.99 |
